Test results published in the DeepSol protein solubility set.

Experiment: soluble on expression in E. coli; label from the status in PepcDB or PDB records

Row | Sequence | soluble on expression in E. coli
1 | MDGFDASPKAIAARRAKVFDPVGGYEYFVNTYFPHYIRSPEKSELHAFLFSRLPEIIRSPKGENEAVGAPRGEGKSTKVTQLFTLWCIVTGQKHYAVIVMDSIDQAYPMLEAIKAELEFNPRLKTDFPEVCGQGRVWQAGTIVTANDVKVQVAGSGKKLRGLRHGPYRPDLTVLDDIENDEQVRNPEQRDKLNAWLTKTVLPLGGVGQKYDVIYIGTILHYDSVLNRTLNNPFWHGIKFKAMKRWPDRMDLWDRWEELFRNDGETVAEAFYQANKDEMERGAVTSWAARGVLALMKIRARDGHATFDSEYQNDPVSGEDAPFAKSMKFWNDLPSDLVYFGALDPSLGKAGASRDPSAIIIGGYQRVTGKLYVVEAQIKKRLPDLIIEDVIRLHRQYRCKLWFVETVQFQEFLKDELVKRSAARGIPVPARAVKPVSDKLLRIETLQPHMANGLILLNESQQTLIQQFRHFPKADHDDGPDAVHMLWSGAVANCVPIEWQSPTDNDFDDEIKSKWSR | not soluble
2 | MEILYIKGDATAPIGSGVKVITHICNDIGGWGKGFVLALSKKWKMPEEAYRQWYKSQEEFTLGAVQFVNVENKLYVANMIGQHGIYKDSKGLPPIRYDAVRQCLKEVALFTIAHKASVHMPRIGCGLAGGKWELMEQIIKEELITKEIAVTVYDLMAGDPLEHHHHHH | soluble
3 | MGSDKIHHHHHHVNSDNNPNQISDIKPILKVYIENSGSMDGYMCDGSQLKDAIFDYVSDLSTCVDTTQLYYINNRVIPYHADLEQYIKTMNPITFQKAGGNRSNSDLSKMLSTVLDAMTDSTVSIFVSDCILDLPVSDAQRFLSTCQISIKNTINKGRKNIPLLGVEILKMKSDFNGKYFYQNGGSEVLTNVKRPYYIWIFGNSNVLAKLNTEVLFKGLEKYGYDNIISYCPKTSIPYDITNRALISKTINPIKGDYNATIRADFCTTLQSEDVLLNLDNYSFNNQNLIIENIKPIIATEREYSHFINITIPKGVNIAEDYLILKAPNMPSWVLESNDESGENVKGNLDKTTGIKYLIGGVSDAYKKDNVLTTLKFTVKRK | not soluble
4 | MGSDKIHHHHHHMVAYGELIREVRLSKGLTQKEVYTGVISKSYAIGFEKGKHDITLVLFEEILERVMLSSDEFFFMNRGYSLAEEDNFWYKFANAANQKSLADLQELYQEVLQQTGDRANLRKAIVHSRMEINEQFLLNNRFDVSIVSEKDKAVIQTYLWKVQSWTLEEIRIFANSVDYFEEDVQIYFFQLVLKSLEKYKHYDRGKKVFSTLLSNIIEELITRNQLEYAAQLLEILHELSSTHDCAFYRIMHNYYQGLIWMKNDQVEQGLKESKSAIRILDVLDYKSLAQLYNTLLQQFLEKENIQIV | not soluble
5 | MSESAFKDCFSTDVSADTRLFHFLARDYIVQEGQQPSWLFYLTRGRARLYATLANGRVSLIDFFAAPCFIGEIELIDKDHEPRAVQAIEECWCLALPMKHYRPLLLNDTLFLRKLCVTLSHKNYRNIVSLTQNQSFPLVNRLAAFILLSQEGDLYHEKHTQAAEYLGVSYRHLLYVLAQFIHDGLLIKRKDI | not soluble
6 | MNNSKTNQQMNTSMGYPLTVYDECNKFQLIVPTLDANIMLWCIGQLSLLNDSNGCKHLFWQPNDKSNVRILLNNYDYGHLFKYLQCQRKCSVYIGEGTLKKYNLTISTSFDNFLDLTPSEEKESLCREDAHEDPVSPKAGSEEEISPNSTSNVVVSRECLDNFMKQLLKLEESLNKLELEQKVTNKEPNHRISGTIDIPEDRSELVNFFTELKTVKQLEDVFQRYHDYERLSQECDSKTEIASDHSKKETKIEVEPPNERSLQITMNQRDNSLYFQLFNNTNSVLAGNCKLKFTDAGDKPTTQIIDMGPHEIGIKEYKEYRYFPYALDLEAGSTIEIENQYGEVIFLGKYGSSPMINLRPPSRLSAESLQASQEPFYSFQIDTLPELDDSSIISTSISLSYDGDDNEKALTWEEL | soluble
7 | MVGRELFKPVPSSTKPQSNASILARFRTAKSRHQPDRRGAQISANDRKSFVTRETPRTDSCFVSERLAMDDLVQIARCAGGKSVLRLTGVCLLTLLFAIASPAHSTHRPVDDLADVDLQLILAVDVSPSMSKVEQKVQRDGYVGAFRHADIARALKSGERGRIAVLYLEWAGPRQQTVVMPWTIVESLDDALILADRLAALPLTEGRGTSISGALSAAHALFAKSGLRSPRRVIDVSGDGPNNAGLPLQLVHDALTTGGVTINGLAISLRAADTLDSFGPHFIELYYESCVIGGSNAFVVTVENTADFANAIRKKLVNEIAGLSAKVQPATYRSHSRPVVLEHHHHHH | soluble
8 | MAVAFYIPDQATLLREAEQKEQQILRLRESQWRFLATVVLETLRQYTSCHPKTGRKSGKYRKPSQ | not soluble
9 | MGHHHHHHSHMASLFRSYLPAIWLLLSQLLRESLAAELRGCGPRFGKHLLSYCPMPEKTFTTTPGGWLLESGRPKEMVSTSNNKDGQALGTTSEFIPNLSPELKKPLSEGQPSLKKIILSRKKRSGRHRFDPFCCEVICDDGTSVKLCT | not soluble
10 | MGHHHHHHSHMQNEKETMQSLNDRLASYLDRVRSLETENRRLESKIREHLEKKGPQVRDWSHYFKIIEDLRAQIFANTVDNARIVLQIDNARLAADDFRVKYETELAMRQSVENDIHGLRKVIDDTNITRLQLETEIEALKEELLFMKKNHEEEVKGLQAQIASSGLTVEVDAPKSQDLAKIMADIRAQYDELARKNREELDKYWSQQIEESTTVVTTQSAEVGAAETTLTELRRTVQSLEIDLDSMRNLKASLENSLREVEARYALQMEQLNGILLHLESELAQTRAEGQRQAQEYEALLNIKVKLEAEIATYRRLLEDGEDFNLGDALDSSNSMQTIQKTTTRRIVDGKVVSETNDTKVLRH | soluble
11 | MAHHHHHHMPDDRRRASRTDDALVAHRPADSASPVERRTRVDPRTHTKSLYQRGRDGSEMYASYYNSNDDPAFQERFNRHSNGNAFVQSAQFTYVSHGGCGGRNHTVVKERQRPVVVEEPDDADRHEASTDSGNNANVHAKHKDKEKRRSSKQDPIVEEPDSEDDYNDADSRAYRRGGKKGEFGSHPDALEFWRDPWGMESIMAEMMQPPLGFGDAFPFTSRRAPAQRRLKSPSVSNESKWQLSPHTRGGVMSSPFTGDLFGTGGPESPFRMMEAMQYHMHQQRAAMFGGVDPFRHFM | not soluble
12 | MPDADVNDFELVDVDQKAADKAIKDLGVKATIDEVCTVGEEGYVVTATDKEGYGGDIKITVGITADGTINGISILSISETAGLGMRATEPAFYEQYQGKQAEKFVVSKDGGDGEPIDALSGATITSRAVTGAVNAALGYYQNAFLEHHHHHH | soluble
13 | MAHHHHHHMKYNEAQMRFYLLCLNMKQANTKEDKSQKISNSSTIDEIEEEQLYTGPLKIEQLLAKGFVKRDLELLKEGGLQTVECVAYAPMRTLCAIKGISEQKAEKLKKACKELCNSGFCNAIDYHDARQNLIKFTTGSKQLDALLKGGIETGGITELFGEFRTGKSQLCHTLAITCQLPIEQSGGEGKCLWIDTEGTFRPERIVAIAKRYGLHPTDCLNNIAYAKAYNCDHQTELLIDASAMMADARFALLIVDSATALYRSEYIGRGELANRQSHLCRFLRGLQRIADIYGVAVIITNQVVAKVDAMSMFGGHEKIPIGGNIIAHASQTRLYLRKGRGESRICKIYDSPVLPEGEAVFAITEGGIADYEEK | not soluble
14 | MGSDKIHHHHHHENLYFQGMQVIKQKLTATCAQLTGYLHQPDTNAHQTNLPAIIIVPGGSYTHIPVAQAESLAMAFAGHGYQAFYLEYTLLTDQQPLGLAPVLDLGRAVNLLRQHAAEWHIDPQQITPAGFSVGGHIVALYNDYWATRVATELNVTPAMLKPNNVVLGYPVISPLLGFPKDDATLATWTPTPNELAADQHVNSDNQPTFIWTTADDPIVPATNTLAYATALATAKIPYELHVFKHGPHGLALANAQTAWKPDANQPHVAHWLTLALEWLADNR | soluble
15 | FKRVSKAAVTASVTVIKAEDLVNTPVANPMELLQGRVPGLNIQMNNGTPGGLPSFSIRGVSDISVQSSGDGEFMMGLTPPLFVVDGIPQEDVTGYDAAGLLSGATVSPLAMIPLEDIANIQVLKDAAATSLYGSKGAYGVILIETKRGETA | not soluble
16 | MDLNFDLYMNDVVEQARNEIEHAGYQQLTSAEDVDQVLQQKGTSLVMVNSVCGCAGGIARPAAAHALHYDKLPQRLVTVFAGQDKEATQQAREYFEGYAPSSPSFALIKDGKITEMIERHQIEGHDVMDVINQLQALFDKYCEER | not soluble
17 | MHPALKYMRQDRLPHIFCSGCGNGIVMNCFLKAIEELNIKPEDYIAVSGIGCSSRVPGYLYCDSLHTTHGRPIAFATGIKIARPDKHVVVFTGDGDLAAIGGNHFIHGCRRNIDLTVICINNNIYGMTGGQVSPTTPYGKKATTAPYGSIENTMDLCKMAIAAGATYVARWTTAHPIQLVRSIKKGIQKKGFAFIEVVSQCPTYYGRFNISRKPADMIKFLKENSIHLNKAKDMSEEELNGKIVVGEFLDIEKPEFVEELHKLIEKLKSE | not soluble
18 | MSLRKVRVGIWGFGAMGIGMANMILKKEGIEIVSVCSRSTSGKSMYDVLGIERGERPEVIINKNYEEVFREKSVDVVLLATDSFTKKAFDKIIFLLNRKINVISTAEQMAYPQADDADLAKKMDEVAKENGVSILGTGINPGFVLDLLVLALSGTCEEVTSIKAKRVNDLSPFGKSVMVEQGVGVTREEFIKGVEDKTIAGHVGFVESINMIADGLGWKLDKIEQTKEPIMTTVDRKSKYGEALAGNVAGCRQCGYGYVNGEVLIEMEHPQQIIPEAEGIKTGDYVSIKGIPNIDLQINPEIPGGVGTYAMIVNSIPLIINARPGLKTMLDIPVPRAIMGDIRNQIEVELEEEGHHHHHH | soluble
19 | MKTTLIISTYNRPEALSVCLDSVRFQTVMPDEVIVGDDGSTSETKDLIESFKKDFPVPLIHLWQEDKGFRLAMMRNKSVAAATGDYIIEIDGDIFLHNKFVEDHKRLAKPGHYLRGTRVNLGQKLTEEICKSKVNRRIYPWTIGIQNRAETAIHSTPVSNFFADRYKKNVSSGLGCNMSFWRSDFLAINGYDEFFEGWGKEDDDLTHRLQRKGCKKRSLRFAGIVYHLWHGHESMESDQKNAEYFRKNNEKNIVYCENGVSKYLKQELEHHHHHH | soluble
20 | MGSDKIHHHHHHMEEIVLFHTNDLHSHFENWPKIRRLVKAKRSLYQKEGKTVVTIDLGDFSDRCHPLTEATDGRANVAIMNTLAYDLVTIGNNEGIGNSKKQLEHLYDQATFEVVLANLEEPKTQTLPDFCQAYKIMTTKEGTKLGFIGLTAPFPLTYNPNGWTIKQVEAVLPQLITEVAPQCDVLILLSHLGIDTDFMIAANYPEIQVILGSHTHHLFKDGEKINHVQLAAAGKYGQYIGEVHLFVDADTKQVTSYAKTIETASLEEQATDAKEIAGYLTEGHRLLQAQQIAQIPETLSTDLRQPHAFITVALKALKEAGQTEAAVLNNGLFLADLPEGIINADQLHEALPHPMHLIKVTLKGSDMSRLIREMEKSRQFLRKFPIRGMGFRGKIFGELCYDGIRFEPNSQTVFWQGKPIQPEQKYTLTTVDHFQFVPFFPTIELVGEVEFLFPDVLRTVVANYLHAHYPIK | not soluble
21 | MGSDKIHHHHHHMAEPSGLLKKGEKMDSMLCTKRTLLSDEFQHWARLFMKTGKLHRKFWEWCFIAQALKEHDMLAPGRIGLGFGVGEEPLSSCFASFGASILATDLDLQNSSVAGWTKTSQHADNKGKLNKLGICPGWEFENLVEFEFANMNSIPKRYTGKFDFVWSSCSLEHLGSIEKGVTFILNSINCLKPGGVAVHTTEFNVSPNSDTIETGPTVLFRRKEIEDIIERVRSFGCRAHINWDHGDLPEDYYIDIPPYSHNPHLKLRISKYVVTSIGLVISK | not soluble
